From patent publication US6759384 (AVENTIS PHARMACEUTICALS, dated 2004)
Starred links: 1 amine or outer side, 2 acyl side, 3 side chain; linkers in the order of their positions; H or OH if unused. Non-standard residues stand in square brackets, D forms with d. *: point of attachment. (iBu)F(pNH2) = N-alpha-isobutyl-4-amino-phenylalanine, CC(C)CN([C@@H](Cc1ccc(N[*:3])cc1)C(=O)[*:2])[*:1]; Phe(3-I,4-NH2) = 4-amino-3-iodo-L-phenylalanine, O=C([C@H](Cc1ccc(N[*:3])c(I)c1)N[*:1])[*:2]; dpAph = D-4-amidinophenylalanine, N=C(N)c1ccc(C[C@@H](N[*:1])C(=O)[*:2])cc1; Phe(4-amidino) = N=C(N)c1ccc(C[C@H](N)C(=O)O)cc1; 2‑pyridonyl = 2-pyridonyl N-terminal group; Phe(4-NH2) = Nc1ccc(C[C@H](N)C(=O)O)cc1; 2‑naphthylmethyl = c1ccc2cc(C*)ccc2c1; Quinaldoyl = O=C(c1ccc2ccccc2n1)*; Chg = N[C@H](C(=O)O)C1CCCCC1; Tfa = O=C(C(F)(F)F)*

B1: (2-naphythl-CH2)Phe(pNH2)-Chg-Arg-Leu-Pro-NH2 (peptide)
peptide: {2‑naphthylmethyl}-[Phe(4-NH2)][Chg]RLP-NH2
SMILES: CC(C)C[C@H](NC(=O)[C@H](CCCNC(=N)N)NC(=O)[C@@H](NC(=O)[C@H](Cc1ccc(N)cc1)NCc1ccc2ccccc2c1)C1CCCCC1)C(=O)N1CCC[C@H]1C(N)=O
B2: Ac-pAph-I-R-L-P-NH2 (peptide)
peptide: Ac-[Phe(4-amidino)]IRLP-NH2
SMILES: CC[C@H](C)[C@H](NC(=O)[C@H](Cc1ccc(C(=N)N)cc1)NC(C)=O)C(=O)N[C@@H](CCCNC(=N)N)C(=O)N[C@@H](CC(C)C)C(=O)N1CCC[C@H]1C(N)=O
B3: 5-Bzim-CO-F(pNH2)-Chg-R-L-P-NH2 (peptide)
peptide: {5‑benzimidazolecarbonyl}-[Phe(4-NH2)][Chg]RLP-NH2
notes: also called (5-benzimidazoyl)-Phe(NH2)-Chg-Arg-Leu-Pro-NH2
B4: Ac-F(pNH2)-Chg-R-L-P-NH2 (peptide)
peptide: Ac-[Phe(4-NH2)][Chg]RLP-NH2
SMILES: CC(=O)N[C@@H](Cc1ccc(N)cc1)C(=O)N[C@H](C(=O)N[C@@H](CCCNC(=N)N)C(=O)N[C@@H](CC(C)C)C(=O)N1CCC[C@H]1C(N)=O)C1CCCCC1
notes: also called Ac-Phe(pNH2)-Chg-Arg-Leu-Pro-NH2
B5: (2-quinolinoyl)-Phe(NH2)-Chg-Arg-Leu-Pro-NH2 (peptide)
peptide: Quinaldoyl-F[Chg]RLP-NH2
modifications: not fully specified (residue 1); printed as (2-quinolinoyl)-Phe(NH2)-Chg-Arg-Leu-Pro-NH2
B6: Tfa-(iBu)F(pNH2)-Chg-R-L-P-NH2 (peptide)
peptide: Tfa-[(iBu)F(pNH2)][Chg]RLP-NH2
SMILES: CC(C)C[C@H](NC(=O)[C@H](CCCNC(=N)N)NC(=O)[C@@H](NC(=O)[C@H](Cc1ccc(N)cc1)N(CC(C)C)C(=O)C(F)(F)F)C1CCCCC1)C(=O)N1CCC[C@H]1C(N)=O
notes: also called CF3C(O)-(iBu)Phe(NH2)-Chg-Arg-Leu-Pro-NH2
B7: Ac-Phe(3I,4NH2)-Chg-Arg-Leu-Pro-NH2 (peptide)
peptide: Ac-[Phe(3-I,4-NH2)][Chg]RLP-NH2
SMILES: CC(=O)N[C@@H](Cc1ccc(N)c(I)c1)C(=O)N[C@H](C(=O)N[C@@H](CCCNC(=N)N)C(=O)N[C@@H](CC(C)C)C(=O)N1CCC[C@H]1C(N)=O)C1CCCCC1

Key:
[1] = target: T1, human factor Xa (Enzyme Research Laboratories, Inc.) (human, UniProt P00742 41-179; P00742 235-488, limits assumed); experiment: chromogenic FXa inhibition
Experimental: (§1) TBS-P buffer (50 mM Tris-Cl, pH 7.8, 200 mM NaCl, 0.05% (w/v) PEG-8000, 0.02% (w/v) NaN_3) was used for this assay. The IC$50$ was determined by combining in appropriate wells of a Costar half-area microtiter plate 25 μl human factor Xa (Enzyme Research Laboratories, Inc.; South Bend Ind.) in TBS-P; 40 μl 10% (v/v) DMSO in TBS-P (uninhibited control) or various concentrations of a peptide to be tested diluted in 10% (v/v) DMSO in TBS-P; and substrate S-2765 (Nα-benzyloxycarbonyl-D-Arg-Gly-L-Arg-p-nitroanilide; Kabi Pharmacia, Inc.; Franklin Ohio) in TBS-P.
(§2) The assays were performed by pre-incubating the peptide inhibitor plus enzyme for 10 min, then the assay was initiated by adding substrate to obtain a final volume of 100 μl. The initial velocity of chromogenic substrate hydrolysis was measured by the change in absorbance at 405 nm using a Bio-tek Instruments kinetic plate reader (Ceres UV900HDi) at 25° C. during the linear portion of the time course (usually 1–5 min after addition of substrate). The concentration of inhibitor that caused a 50% decrease in the rate of substrate hydrolysis was predicted by linear regression after plotting the relative rates of hydrolysis (compared to the uninhibited control) versus the log of the peptide concentration. The enzyme concentration was 0.5 nM and substrate concentration was 140 μM.

[2] = target: T1, human factor Xa (Enzyme Research …); experiment: chromogenic FXa inhibition; remark: listed apart in the source
Outline: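 Human FXa (0.5 nM) preincubated 10 min with inhibitor in TBS-P (pH 7.8, 200 mM NaCl, PEG-8000), then S-2765 added (140 μM). Initial hydrolysis rate read at 405 nm, 25° C.; IC50 by linear regression of relative rate vs log concentration.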

[3] = target: T1, human factor Xa (Enzyme Research …); experiment: chromogenic enzyme inhibition, IC50 corrected for substrate
[4] = target: T1, human factor Xa (Enzyme Research …); experiment: chromogenic FXa inhibition; remark: listed apart in the source
Experimental: as §1, §2

[5] = target: human thrombin (Enzyme Research Laboratories, Inc.) (human, UniProt P00734 328-622); experiment: chromogenic enzyme inhibition, IC50 corrected for substrate

T1 sequence (P00742 41-179 limits assumed, chain 1 of 2): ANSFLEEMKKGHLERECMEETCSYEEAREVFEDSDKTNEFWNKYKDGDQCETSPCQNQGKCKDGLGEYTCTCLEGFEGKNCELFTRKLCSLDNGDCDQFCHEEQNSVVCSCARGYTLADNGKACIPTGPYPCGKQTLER
T1 sequence (P00742 235-488 limits assumed, chain 2 of 2): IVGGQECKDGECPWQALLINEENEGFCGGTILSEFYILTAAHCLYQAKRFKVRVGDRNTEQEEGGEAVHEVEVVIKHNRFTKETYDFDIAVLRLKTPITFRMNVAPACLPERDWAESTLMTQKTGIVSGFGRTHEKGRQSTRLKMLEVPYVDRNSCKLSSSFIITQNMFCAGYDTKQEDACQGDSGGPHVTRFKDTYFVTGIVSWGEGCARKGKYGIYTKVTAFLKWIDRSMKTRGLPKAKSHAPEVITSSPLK

Binder	Ki [1] [µM]	Ki [2] [µM]	also measured
B1	< 100		
XIRLP (N-term Ac; N-(Et-CH═C(CH3)-CH2) on Y1; Y1=Y(SO3H); C-term NH2) [Ac-(Et-CH═C(CH3)-CH2)Y(SO3H)-I-R-L-P-NH2]		< 100	
XIRLP (N-term Tfa; N-(iBu) on Y1; C-term NH2) [Tfa-(iBu)Y-I-R-L-P-NH2]	< 100	< 100	
YIRLP (D-Tyr at 1; C-term NH2, also called (D)-Tyr-Ile-Arg-Leu-Pro-NH2) [y-I-R-L-P-NH2]		< 100	Ki [3]: 0.2 µM
B2	< 100	< 100	
XIRLP (N-(iBu) on Y1; C-term NH2) [(iBu)Y-I-R-L-P-NH2]		< 100	Ki [4]: 2.6 µM
B3	< 100	< 100	
B4	< 100	< 100	
B5	< 100		
B6	< 100	< 100	
{2‑naphthylsulfonyl}-[Phe(4-NH2)][Chg]RLP-NH2 [(2-naphthylsulfonyl)-Phe(pNH2)-Chg-Arg-Leu-Pro-NH2]	< 100		
Ac-[dpAph]IRLP-NH2 [Ac-D-pAph-Ile-Arg-Leu-Pro-NH2]	< 100		
{2‑methylbenzyl}-[Phe(4-NH2)][Chg]RLP-NH2 [(2-methylbenzyl)-Phe(pNH2)-Chg-Arg-Leu-Pro-NH2]	< 100		
B7	< 100		
XIRLP (N-term Ac; N-(iBu) on Y1; C-term NH2) [Ac-(iBu)Y-I-R-L-P-NH2]		< 100	Ki [5]: 25 µM; Ki [3]: 0.04 µM
{2‑pyridonyl}-[Phe(4-NH2)][Chg]RLP-NH2 [(2-pyridonyl)Phe(pNH2)Chg-Arg-Leu-Pro-NH2]	< 100		
